Test results taken from the supplement of paper PMC10567573.

B1: ZBTB22 (parent)
chain: FSSSSQEAFAASAVGSGERRGGGP
B2: TPD52L2 (parent)
chain: EAEEEELRAELTKVEEEIVTLRQV

Variants of: B1
Experiment: protein stability index of a GFP-peptide fusion (GPS, HEK-293T) (PSI 1-6); higher = more stable
Details: c terminus: a fixed tail appended
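Note: lentivirally expressed fusions sorted by FACS into six bins by GFP to DsRed ratio, PSI derived from sequencing read proportions per bin multiplied by bin number.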

Protein stability index of substitutions, site by site:
F1: W 5.09 | L 5.29 | I 5.3 | K 5.04 | E 5.43 | P 5.33 | H 4.75 | Y 3.48 | V 5.17 | A 4.9 | T 5.39 | D 5.7 | G 5.5 | M 5.13 | R 5.67 | N 5.02 | C 3.94 | Q 5.01 | S 4.85
Q6: N 3.32 | L 2.85 | A 2.74 | C 3.77 | E 4.4 | M 2.85 | F 2.18 | Y 2.13 | I 2.5 | R 3 | P 3.03 | D 4.44 | V 2.6 | H 2.81 | T 2.77 | G 4.22 | S 2.49 | K 1.31
S3: N 3.76 | D 4.36 | L 4.05 | Q 4.07 | C 2.97 | I 4.37 | F 3.37 | W 2.86 | M 4.2 | H 4.13 | T 4.04 | K 4.3 | G 2.35 | V 4.41 | P 2.99 | A 3.41 | E 4.38 | R 3.54 | Y 3.71
S5: Q 4.35 | E 4.15 | W 2.87 | L 3.66 | F 2.45 | C 2.79 | A 2.71 | N 3.61 | P 4.56 | T 4.41 | H 2.86 | Y 1.95 | R 3.7 | I 3.62 | V 4.15 | M 2.4 | D 4.27 | K 3.91
E7: N 2.84 | M 2.37 | I 2.24 | A 2.09 | K 2.82 | L 1.55 | G 3.12 | C 1.64 | D 3.99 | H 2.31
S4: K 2.65 | P 4.25 | Y 3.74 | H 3.21 | Q 3.09 | M 3.36 | D 3.98 | I 3.62 | T 3.29 | W 1.68 | L 3.65 | A 3.14 | E 4.28 | N 3.52 | R 2.57 | G 1.93 | F 2.88 | V 3.87
S2: N 4.13 | I 2.26 | G 2.2 | L 3.13 | A 2.29 | C 2.62 | D 5.17 | W 3.16 | K 4.86 | Y 4.54 | Q 2.55 | E 5.12 | M 4.01 | V 2.29 | T 2.53 | H 1.77 | R 4.52 | F 4.08

Variants of: B2
Experiment: as above
Details: c terminus: a fixed tail appended

Protein stability index of substitutions, site by site:
V24: W 3.89 | E 4.35 | A 4.41 | C 3.63 | K 4.87 | N 4.72 | S 4.52 | F 3.25 | G 3.41 | Q 4.14 | Y 3.83 | R 4.39 | T 4.39 | M 3.42 | H 3.92 | I 4.13 | L 3.78 | D 5.2 | P 4.65
R22: T 4.18 | W 2.92 | Y 2.54 | V 3.4 | Q 3.77 | S 4.37 | P 4.85 | M 3.17 | N 3.9
Q23: W 4.35 | C 3.9 | Y 5.02 | K 4.04 | S 3.61 | T 4.06 | I 2.98 | N 4.21 | R 3.73 | G 4.54 | E 3.82 | L 3.25 | V 3.11 | A 3.56 | H 3.6 | P 4.58 | D 4.43 | M 3.65 | F 3.19
